# Reference: patent publication US20120065123A1, “Synthetic Antibodies” (priority 2009, published 2012)
# Where no end group is shown, it is not given here.
# B1: synbody comprising TRF-26 and TRF-23 (Example 9) (designed binder)
# peptide 1: AHKVVPQRQIRHAYNRYGSG
# peptide 2: FRGWAHIFFGPHVIYRGGSG
# modifications: not fully specified (bridges); also: both C-termini joined to the alpha and epsilon amines of a lysine linker
# Biological target: transferrin
# Test: SPR steady state
# T100 sequence (P02787 20-698): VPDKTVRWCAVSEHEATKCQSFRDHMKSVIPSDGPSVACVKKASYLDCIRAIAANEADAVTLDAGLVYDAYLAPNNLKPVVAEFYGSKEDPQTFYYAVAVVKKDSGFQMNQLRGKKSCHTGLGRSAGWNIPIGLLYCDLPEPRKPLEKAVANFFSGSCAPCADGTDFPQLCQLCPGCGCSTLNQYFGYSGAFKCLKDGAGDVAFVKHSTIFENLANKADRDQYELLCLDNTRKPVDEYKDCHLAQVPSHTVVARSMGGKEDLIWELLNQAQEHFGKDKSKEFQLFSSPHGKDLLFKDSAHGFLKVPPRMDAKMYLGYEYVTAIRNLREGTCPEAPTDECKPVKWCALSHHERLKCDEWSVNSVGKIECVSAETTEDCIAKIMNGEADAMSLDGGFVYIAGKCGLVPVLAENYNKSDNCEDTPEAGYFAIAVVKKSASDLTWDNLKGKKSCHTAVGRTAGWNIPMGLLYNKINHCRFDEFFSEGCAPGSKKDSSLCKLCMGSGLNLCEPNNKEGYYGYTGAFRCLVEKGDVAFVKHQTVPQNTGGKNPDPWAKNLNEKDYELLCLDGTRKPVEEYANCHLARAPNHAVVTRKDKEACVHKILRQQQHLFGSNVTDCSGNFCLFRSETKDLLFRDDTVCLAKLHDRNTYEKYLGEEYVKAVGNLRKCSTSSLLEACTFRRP
row,Binder,fold improvement of affinity against the original peptide TRF26 [fold]
1,AHKVVPQRQMRHAYSRYGSC [TBPM023],> 10

# Biological target: Tumor Necrosis Factor-alpha (TNF-α)
# Test: SPR equilibrium; against the TNF1 lead
# Chain of Tumor Necrosis Factor-alpha (TNF-α) (P01375 77-233): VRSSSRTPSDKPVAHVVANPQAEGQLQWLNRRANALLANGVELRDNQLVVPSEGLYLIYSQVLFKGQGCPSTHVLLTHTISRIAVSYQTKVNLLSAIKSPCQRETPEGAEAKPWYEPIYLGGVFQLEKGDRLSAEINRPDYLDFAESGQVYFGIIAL
Binder,Kd Fold-Change Relative to Lead [fold],Component Binding ΔG Contribution [kcal/mol]
FERSYLKMPWKFLQSRQGSC (modifications not checked) [TNF1-opt (D4S+P5Y+M7K+S11K quadruple mutant of TNF1)],100,
FERSYLKMPWSFLQSRQGSC (modifications not checked) [TNF1 D4S+P5Y+M7K triple mutant],11,
FERDPLMMPWKFLQSRQGSC (modifications not checked) [TNF1 S11K point-mutant],3.9,-0.82
FERDYLMMPWKFLQSRQGSC (modifications not checked) [TNF1 P5Y+S11K double mutant],6.6,
FERDYLKMPWSFLQSRQGSC (modifications not checked) [TNF1 P5Y+M7K double mutant],5.8,
FERYPLKMPWSFLQSRQGSC (modifications not checked) [TNF1 D4Y+M7K double mutant],9.4,
FERYPLMMPWKFLQSRQGSC (modifications not checked) [TNF1 D4Y+S11K double mutant],17,
FERDPLKMPWSFLQSRQGSC (modifications not checked) [TNF1 M7K point-mutant],2.8,-0.72
FERSYLMMPWKFLQSRQGSC (modifications not checked) [TNF1 D4S+P5Y+S11K triple mutant],23,
FERYPLMMPWSFLQSRQGSC (modifications not checked) [TNF1 D4Y point-mutant],3.6,-0.74
FERDYLMMPWSFLQSRQGSC (modifications not checked) [TNF1 P5Y point-mutant],2.7,-0.58

# Biological target: Tumor Necrosis Factor-alpha (TNF-α)
# Test: SPR kinetic fits of several sensorgrams
row,Binder,Kd [µM]
1,FERSYLKMPWKFLQSRQGSC (modifications not checked) [TNF1-opt (D4S+P5Y+M7K+S11K quadruple mutant of TNF1)],0.7

# Biological target: Tumor Necrosis Factor-alpha (TNF-α)
# Test: fluorescence anisotropy
row,Binder,Kd [µM]
1,FERSYLKMPWKFLQSRQGSC (modifications not checked) [TNF1-opt (D4S+P5Y+M7K+S11K quadruple mutant of TNF1)],1.1

# Biological target: Tumor Necrosis Factor-alpha (TNF-α)
# Test: from SPR dissociation constants
Binder,difference in observed binding energy against the D4S+P5Y+S11K mutant [kcal/mol],difference in observed binding energy against the P5Y+M7K mutant [kcal/mol],difference in observed binding energy against the P5Y+S11K mutant [kcal/mol]
FERSYLKMPWKFLQSRQGSC (modifications not checked) [TNF1-opt (D4S+P5Y+M7K+S11K quadruple mutant of TNF1)],-0.94,-1.73,-1.66
FERSYLMMPWKFLQSRQGSC (modifications not checked) [TNF1 D4S+P5Y+S11K triple mutant],,,-0.72

# Biological target: Tumor Necrosis Factor-alpha (TNF-α)
# Test: SPR kinetic fits of sensorgrams
row,Binder,koff [s⁻¹]
1,FERSYLKMPWKFLQSRQGSC (modifications not checked) [TNF1-opt (D4S+P5Y+M7K+S11K quadruple mutant of TNF1)],0.2

# Biological target: transferrin
# Test: SPR steady state, Biacore T100, transferrin immobilised
row,Binder,Kd [µM]
1,KEDNPGYSSEQDYNKLDGSC [TRF19],150
2,SVKPWRPLLTGNRWLNSGSC [TRF24],50
3,AHKVVPQRQIRHAYNRYGSC [TRF26],100
4,APYAPQQIHYWSTLGFKGSC [TRF25],60
5,QYHHFMNLKRQGRAQAYGSC [TRF21],60
6,FRGWAHIFFGPHVIYRGGSC [TRF23],50

# Biological target: Tumor Necrosis Factor-alpha (TNF-α)
# Test: SPR equilibrium, Biacore A100, TNF-α captured on chip
Binder,Binding ΔG (observed) [kcal/mol],Kd [µM],Binding ΔG [kcal/mol]
FERSYLKMPWKFLQSRQGSC (modifications not checked) [TNF1-opt (D4S+P5Y+M7K+S11K quadruple mutant of TNF1)],-7.97,1.6,
FERSYLKMPWSFLQSRQGSC (modifications not checked) [TNF1 D4S+P5Y+M7K triple mutant],-6.63,14,
FERDPLMMPWKFLQSRQGSC (modifications not checked) [TNF1 S11K point-mutant],,40,-6.03
FERDYLMMPWKFLQSRQGSC (modifications not checked) [TNF1 P5Y+S11K double mutant],-6.63,24,
FERDYLKMPWSFLQSRQGSC (modifications not checked) [TNF1 P5Y+M7K double mutant],-6.24,27,
FERYPLKMPWSFLQSRQGSC (modifications not checked) [TNF1 D4Y+M7K double mutant],-6.54,17,
FERYPLMMPWKFLQSRQGSC (modifications not checked) [TNF1 D4Y+S11K double mutant],-6.67,9.3,
FERDPLKMPWSFLQSRQGSC (modifications not checked) [TNF1 M7K point-mutant],,57,-5.93
FERSYLMMPWKFLQSRQGSC (modifications not checked) [TNF1 D4S+P5Y+S11K triple mutant],-7.03,7,
FERYPLMMPWSFLQSRQGSC (modifications not checked) [TNF1 D4Y point-mutant],,44,-5.95
FERDYLMMPWSFLQSRQGSC (modifications not checked) [TNF1 P5Y point-mutant],,58,-5.79

# Biological target: transferrin
# Test: SPR kinetics, transferrin immobilised
row,Binder,Kd [µM]
1,B1,0.15

# Biological target: transferrin
# Test: peptide microarray of about 10,000 peptides, rank by score (555 nm intensity squared over 647 nm intensity); no organic prewash
row,Binder,Rank - non-prewash [rank]
1,KEDNPGYSSEQDYNKLDGSC [TRF19],5010

# Biological target: transferrin
# Test: against the TRF26 lead
Binder,Component Binding ΔG Contribution [kcal/mol],Kd Fold-Change Relative to Lead [fold]
AHKVVPQRQIRFAYNRYGSC [TRF26 H12F point-mutant],-1.29,8.8
AHKVVYQRQIRFAYNRYGSC [TRF26 P6Y+H12F double mutant],,190
AHKVVYQRQIRHAYNRYGSC [TRF26 P6Y point-mutant],-1.37,10

# Biological target: transferrin
# Test: affinity characterization of the peptide; method not named
row,Binder,Kd [µM]
1,AHKVVPQRQIRFAYNRYGSC [TRF26 H12F point-mutant],9.8

# Biological target: transferrin
# Test: peptide microarray, rank by score; with organic prewash
row,Binder,Rank -- prewash [rank]
1,LDPLFNTSIMVNWHRWMGSC [TRF27],3320
2,KEDNPGYSSEQDYNKLDGSC [TRF19],9600
3,GQTQFAMHRFQQWYKIKGSC [TRF20],289
4,SVKPWRPLLTGNRWLNSGSC [TRF24],958
5,AHKVVPQRQIRHAYNRYGSC [TRF26],436
6,APYAPQQIHYWSTLGFKGSC [TRF25],603
7,QYHHFMNLKRQGRAQAYGSC [TRF21],5
8,HAYKGPGDMRRFNHSGMGSC [TRF22],61
9,FRGWAHIFFGPHVIYRGGSC [TRF23],2090

# Biological target: Tumor Necrosis Factor-alpha (TNF-α)
# Test: SPR screen at 50 µM peptide, Biacore A100
row,Binder,fold enhancement in SPR binding response relative to TNF1 [fold]
1,FERDPLMMPWKFLQSRQGSC (modifications not checked) [TNF1 S11K point-mutant],> 15
2,FERDPLKMPWSFLQSRQGSC (modifications not checked) [TNF1 M7K point-mutant],> 15
3,FERYPLMMPWSFLQSRQGSC (modifications not checked) [TNF1 D4Y point-mutant],> 15
4,FERDYLMMPWSFLQSRQGSC (modifications not checked) [TNF1 P5Y point-mutant],> 15

# Biological target: transferrin
# Test: peptide microarray, rank by score; no organic prewash
row,Binder,Rank - non-prewash [rank]
1,LDPLFNTSIMVNWHRWMGSC [TRF27],1290
2,GQTQFAMHRFQQWYKIKGSC [TRF20],18
3,SVKPWRPLLTGNRWLNSGSC [TRF24],71
4,AHKVVPQRQIRHAYNRYGSC [TRF26],596
5,APYAPQQIHYWSTLGFKGSC [TRF25],736
6,QYHHFMNLKRQGRAQAYGSC [TRF21],84
7,HAYKGPGDMRRFNHSGMGSC [TRF22],711
8,FRGWAHIFFGPHVIYRGGSC [TRF23],2720

# Biological target: transferrin
# Test: SPR steady state affinity model, Biacore T100, transferrin immobilised (9758 RU)
row,Binder,Kd [µM]
1,GHKVVPQRQMRHAYNRNGSC [TBPL025],150
2,GHKVVPQRQIRHAYNRYGSC [TBPL005],150
3,AHKVVPQRQMRHAYSRYGSC [TBPM023],11.6

# Biological target: transferrin
# Test: affinity characterization of the peptide; method not named
# Remark: another data set of the same source
Binder,Binding ΔG [kcal/mol],Kd [µM],Binding ΔG (observed) [kcal/mol]
AHKVVPQRQIRFAYNRYGSC [TRF26 H12F point-mutant],-6.85,9.7,
AHKVVYQRQIRFAYNRYGSC [TRF26 P6Y+H12F double mutant],,0.5,-8.68
AHKVVPQRQIRHAYNRYGSC [TRF26],-5.56,85,
AHKVVYQRQIRHAYNRYGSC [TRF26 P6Y point-mutant],-6.93,8.6,
